Reference: US20210261685A1 (Alector, published 2021)

Assays:
[1] = molecular target: T1, Recombinant human MerTK human Fc Chimera protein (R&D systems, Cat #391-MR-100) (human, UniProt Q12866 26-499, limits assumed); test: competition ELISA, His-ProS on captured MerTK-Fc
T1 construct: Bought; also called recombinant human MerTK protein; MerTK-Fc
T1 sequence: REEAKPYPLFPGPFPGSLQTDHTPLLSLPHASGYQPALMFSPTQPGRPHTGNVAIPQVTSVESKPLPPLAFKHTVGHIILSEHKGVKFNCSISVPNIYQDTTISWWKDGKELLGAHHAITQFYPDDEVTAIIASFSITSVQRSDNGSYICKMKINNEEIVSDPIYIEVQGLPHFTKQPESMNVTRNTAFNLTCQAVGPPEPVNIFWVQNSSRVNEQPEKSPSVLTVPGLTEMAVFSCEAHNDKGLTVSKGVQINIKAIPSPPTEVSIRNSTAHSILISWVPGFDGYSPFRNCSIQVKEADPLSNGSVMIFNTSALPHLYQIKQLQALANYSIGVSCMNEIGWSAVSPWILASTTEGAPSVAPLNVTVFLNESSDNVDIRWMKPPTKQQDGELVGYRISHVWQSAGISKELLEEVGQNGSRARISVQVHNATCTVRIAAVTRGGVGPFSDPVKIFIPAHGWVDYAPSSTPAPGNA
Method: Rabbit anti-human IgG polyclonal antibody (Jackson ImmunoResearch, Cat #309-005-008) was captured to a high-protein binding plate at 2 μg/ml 4° C. overnight. After washing with 0.05% Tween20 in PBS three times, 5% BSA in PBS was added for 1 hour. Recombinant human MerTK human Fc Chimera protein (R&D systems, Cat #391-MR-100) was added at 2 μg/ml for 1 hour and the plates were then washed. Anti-MerTK antibodies were titrated to final concentration range of between 66.6 nM to 4 pM and then 40 μl of serially diluted antibody and 40 μl of His tag-conjugated recombinant Gas6 protein (R&D systems, Cat #885-GSB-050) at 3 μg/ml or His tag-conjugated recombinant ProS protein (R&D systems, Cat #9489-PS-100) at 20 μg/ml. After a further incubation for 1 hour, plates were washed and incubated for 1 hour with HRP-conjugated anti-6×His tag antibody (Abcam, Cat #ab1187). Plates were then washed and an HRP substrate (TMB) was used to develop the plates. After sufficient color change was observed, the reaction was stopped by adding 50 μl 2N H₂SO₄ and the OD was measured using a spectrophotometer (BioTek).
From these experiments, IC50 values [nM] were determined using OD450 values obtained from the dose-response curves analyzed with Prism software. Table 14 and Table 15 show IC50 values determined for anti-MerTK antibody blocking of Gas6 ligand binding and ProS ligand binding to MerTK. […] Dashes indicate lack of significant blocking; “n.a.” indicates data not available.

[2] = molecular target: T2, human Axl ECD construct (Full Axl) with linker+His+Avi tag (human, UniProt P30530 26-451); test: SPR, Carterra LSA, antibody immobilised, construct supernatant injected
T2 construct: tested as Expi293 supernatant; also called ECD domain of human Axl
T2 sequence: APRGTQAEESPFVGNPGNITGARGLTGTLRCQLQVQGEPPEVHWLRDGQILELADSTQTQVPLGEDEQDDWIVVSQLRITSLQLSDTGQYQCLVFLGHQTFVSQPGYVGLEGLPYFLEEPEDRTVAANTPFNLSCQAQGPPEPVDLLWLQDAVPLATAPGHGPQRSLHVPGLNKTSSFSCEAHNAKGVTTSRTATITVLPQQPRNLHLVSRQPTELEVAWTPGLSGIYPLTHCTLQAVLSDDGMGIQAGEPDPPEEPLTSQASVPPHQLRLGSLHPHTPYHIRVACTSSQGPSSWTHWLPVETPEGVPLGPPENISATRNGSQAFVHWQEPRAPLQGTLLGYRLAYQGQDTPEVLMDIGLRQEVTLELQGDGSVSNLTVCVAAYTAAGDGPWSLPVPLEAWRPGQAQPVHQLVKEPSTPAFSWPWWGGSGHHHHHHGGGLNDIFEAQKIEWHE
Method: Binding of anti-MerTK antibodies of the present disclosure to these domain-swapped chimera or deletion mutants (prepared as described above) was tested by Surface Plasmon Resonance (SPR) using Carterra LSA. Purified anti-MerTK antibodies were immobilized in duplicate on a HC30M chip (Carterra) by amine coupling, following the manufacturer's instructions (described previously). Supernatants containing the constructs were diluted 1:1 with running buffer containing 0.5 mg/mL BSA (HBS-TE, Carterra) and injected over the immobilized antibodies. The surface was regenerated with 10 mM Glycine pH2.0 after each construct injection. Sensorgrams were analyzed using Carterra Epitope software to identify patterns of construct binding. Loss of binding to MerTK constructs with domains deleted or swapped in from Axl and/or gain of binding to Axl constructs with MerTK domains swapped in were evaluated. Data from these studies was used to construct a domain binding map for anti-MerTK antibodies and their binding to various domains of human MerTK.

[3] = molecular target: T3, cyno MerTK extracellular domain (ECD), recombinant (cynomolgus monkey, UniProt Q12866 21-505 (human entry)); test: SPR, Carterra LSA, antibody immobilised; LB = Low binding
T3 construct: also called cynomolgus MerTK; not shown: polyHis tag or TEVS/Thrombin/murine IgG2a Fc tag
T3 chain: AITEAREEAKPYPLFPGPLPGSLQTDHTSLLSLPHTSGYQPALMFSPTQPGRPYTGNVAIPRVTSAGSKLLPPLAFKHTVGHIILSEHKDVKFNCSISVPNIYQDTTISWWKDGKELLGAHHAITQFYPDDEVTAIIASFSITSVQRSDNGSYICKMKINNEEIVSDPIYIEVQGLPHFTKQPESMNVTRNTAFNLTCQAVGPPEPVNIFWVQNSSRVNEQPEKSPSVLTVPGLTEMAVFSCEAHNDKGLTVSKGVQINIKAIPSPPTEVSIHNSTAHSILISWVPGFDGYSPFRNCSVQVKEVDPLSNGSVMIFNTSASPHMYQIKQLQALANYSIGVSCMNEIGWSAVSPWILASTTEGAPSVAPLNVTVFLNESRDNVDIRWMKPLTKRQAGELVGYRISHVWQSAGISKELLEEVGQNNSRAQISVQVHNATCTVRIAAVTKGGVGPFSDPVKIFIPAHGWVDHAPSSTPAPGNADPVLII
Method: (§1) Binding kinetics of human anti-MerTK IgG1 LALAPS antibodies of the present disclosure to human, cyno, and murine MerTK were evaluated using a Carterra LSA instrument (Carterra, Salt Lake City, Utah). Briefly, anti-MerTK antibodies were prepared by diluting to 10 μg/ml in 10 mM Acetate, pH 4.25 (Carterra), at 300 μl/well. A HC200M sensor chip (Carterra) was activated using the single channel flow cell with a 7-minute injection of a 1:1:1 mixture of 100 mM MES pH 5.5, 100 mM sulfo-NHS, 400 mM EDC (all reconstituted in MES pH 5.5; 100 μl of each mixed in vial immediately before running assay). After switching to the multi-channel array flow cell, the antibodies were injected over the activated chip in a 96-spot array for 15 minutes. The remaining unconjugated active groups on the chip were then blocked by injecting 1M Ethanolamine pH 8.5 (Carterra) for 7 minutes using the single channel flow cell.
After priming with running buffer (HBS-TE, Carterra) with 0.5 mg/ml BSA (Sigma), the immobilized anti-MerTK antibodies were tested for their ability to bind to several forms of recombinant MerTK extracellular domain, including human, cynomolgus, and mouse orthologs as described above. […] Data were processed and analyzed using NextGenKIT high-throughput kinetics analysis software (Carterra).

[4] = molecular target: T4, human MerTK extracellular domain (ECD), recombinant (human, UniProt Q12866 21-505); test: SPR, Carterra LSA, antibody immobilised
T4 construct: also called huMerTK; not shown: polyHis tag or TEVS/Thrombin/murine IgG2a Fc tag
T4 sequence: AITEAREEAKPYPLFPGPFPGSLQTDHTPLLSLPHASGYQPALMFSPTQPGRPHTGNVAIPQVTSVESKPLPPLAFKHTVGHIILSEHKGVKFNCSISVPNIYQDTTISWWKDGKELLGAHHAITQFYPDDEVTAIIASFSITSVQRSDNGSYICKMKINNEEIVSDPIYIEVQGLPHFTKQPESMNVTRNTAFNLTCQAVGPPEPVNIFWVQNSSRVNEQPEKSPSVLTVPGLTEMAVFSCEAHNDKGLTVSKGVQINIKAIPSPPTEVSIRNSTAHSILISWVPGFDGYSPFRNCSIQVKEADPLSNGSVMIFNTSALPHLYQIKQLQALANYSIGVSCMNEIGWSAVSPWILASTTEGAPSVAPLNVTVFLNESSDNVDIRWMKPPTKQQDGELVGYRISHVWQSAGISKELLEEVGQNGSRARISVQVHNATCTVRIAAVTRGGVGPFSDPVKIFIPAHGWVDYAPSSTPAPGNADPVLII
Method: as §1
(§2) After priming with running buffer (HBS-TE, Carterra) with 0.5 mg/ml BSA (Sigma), the immobilized anti-MerTK antibodies were tested for their ability to bind to several forms of recombinant MerTK extracellular domain, including human, cynomolgus, and mouse orthologs as described above. Estimates of affinity were generated by injecting each analyte over the entire antibody array using the single channel flow cell. MerTK analytes were diluted to 33.3, 100, and 300 nM in running buffer, and injected in serial from lowest to highest concentration without regeneration. Two buffer blanks were run between each series (one species per series). Data were processed and analyzed using NextGenKIT high-throughput kinetics analysis software (Carterra).
(§3) The equilibrium dissociation constants (KD) were then calculated from the fitted association and dissociation rate constants (k-on and k-off) for anti-MerTK antibodies of the present disclosure. Binding kinetic analysis was also performed on anti-MerTK antibodies H1 (BioLegend, Clone ID: 590H11G1E3), H2 (R&D systems, Clone ID: 125518), M6 (WO2016/106221), and CDX AB2000-A7 hIgG1 (WO2019/084307).

[5] = molecular target: T5, murine MerTK extracellular domain (ECD), recombinant (mouse, UniProt Q60805 19-497); test: SPR, Carterra LSA, antibody immobilised
T5 construct: also called moMerTK; mouse MerTK; not shown: polyHis tag or TEVS/Thrombin/murine IgG2a Fc tag
T5 sequence: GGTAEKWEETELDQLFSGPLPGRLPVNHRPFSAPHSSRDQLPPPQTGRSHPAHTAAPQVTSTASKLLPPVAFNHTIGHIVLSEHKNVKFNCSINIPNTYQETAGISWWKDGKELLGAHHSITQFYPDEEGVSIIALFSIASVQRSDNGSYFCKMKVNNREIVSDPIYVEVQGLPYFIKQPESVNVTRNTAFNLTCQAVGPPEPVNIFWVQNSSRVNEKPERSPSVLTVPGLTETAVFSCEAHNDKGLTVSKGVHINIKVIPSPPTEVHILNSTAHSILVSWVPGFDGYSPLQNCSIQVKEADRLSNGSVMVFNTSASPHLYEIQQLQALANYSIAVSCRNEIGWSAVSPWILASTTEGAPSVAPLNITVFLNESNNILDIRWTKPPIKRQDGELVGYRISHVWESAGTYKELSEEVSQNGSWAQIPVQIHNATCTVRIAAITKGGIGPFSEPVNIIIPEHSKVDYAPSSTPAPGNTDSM
Method: as §1, §2, §3

B1: MTK-23 (antibody, human IgG1, V domains shown)
VH: QVQLQQSGADLVRPGASVKISCKAFGYTFTNHHINWVKQRPGQGLDWIGNVDPYNDYSTYNQKFKGKATLTVDKSSSTAYMELSSLTSEDSAVYYCARRVYDGFYVDWYFDVWGAGTTVTVSS
VL: DIVMTQSHKFMSTPVGDRVSITCKASRDVSTAVAWFHQKPGQSPKLLIYSASYRSTGVPDRFTGSGSGTDFTFTISSVQAEDLAVYYCQQHYSAPLTFGAGTKLELK
IC50 [1]: 0.0259 µM

B2: MTK-25 (antibody, human IgG1, V domains shown)
VH: EVKLVESEGGLVQPGSSMKLSCTASGFTFSDYYMAWVRQVPEKGLEWVANINYEGSSTYYLGSLKSRFIISRDNAENILYLQMSSLKSEDTATYYCARYYYGSVDYWGQGTTLTVSS
VL: DIVMTQSQKFMSTSVGDRVSITCKASQNVRTTVAWYQQKPGQSPKTLIYLASNRHTGVPDRFTGSGSGTDFTLTISNVQSEDLADYFCLQLWNYPWTFGGGTKLEIK
binding result [2]: no binding

B3: MTK-22 (antibody, human IgG1, V domains shown)
VH: QVQLQQPGADLVEPGASVKLSCKASGYTFTSYWMHWVKQRPGQGLEWIGEIDPSDSSSNYNQKFKGKATLTVDKSSSTAYMHLNSLTSEDSAVYYCARRYYYGSLYFDNWGQGTTLTVSS
VL: DVVMTQSHKFMSTSVGDRVSITCKASQDVGTAIAWYQQKPGQSPKLLIYWASTRHTGVPDRFTGSRSGTVFTLTISNVQSEDLADYFCQQYTSYPLTFGSGTKLEIK
binding result [2]: no binding | binding result [3]: binds | Kd [4]: 0.054 µM | binding result [5]: no binding (tested: 300 nM)
